# Data reported in the DeepSol protein solubility set.
# Experiment: soluble on expression in E. coli; label from the status in PepcDB or PDB records
row,Sequence,soluble on expression in E. coli
1,MAHPPRLNDDKPVIWTVSVTRLFELFRDISLEFDHLANITPIQLGFEKAVTYIRKKLANERCDAIIAAGSNGAYLKSRLSVPVILIKPSGYDVLQALAKAGKLTSSIGVVTYQETIPALVAFQKTFNLRLDQRSYITEEDARGQINELKANGTEAVVGAGLITDLAEEAGMTGIFIYSAATVRQAFSDALDMTRMSLRHNTHDATRNALRTRYVLGDMLGQSPQMEQVRQTILLYARSSAAVLIEGETGTGKELAAQAIHREYFARHDARQGKKSHPFVAVNCGAIAESLLEAELFGYEEGAFTGSRRGGRAGLFEIAHGGTLFLDEIGEMPLPLQTRLLRVLEEKEVTRVGGHQPVPVDVRVISATHCNLEEDMQQGRFRRDLFYRLSILRLQLPPLRERVADILPLAESFLKVSLAALSAPFSAALRQGLQASETVLLHYDWPGNIRELRNMMERLALFLSVEPTPDLTPQFMQLLLPELARESAKTPAPRLLTPQQALEKFNGDKTAAANYLGISRTTFWRRLKS,not soluble
2,MSLLKNVEVFWQNFLDKHELDMLMPDVWMFGDGSSEMGNRLGQLVVSGRKTATCSSLDIYKMEEEQLPKAGQYDIILDGQSQPLAIIRTTKVEIMPMNKVSESFAQAEGEGDLTLDYWYEEHARFFKEELAPYQLQFYPDMLLVCQSFEVVDLYTEKEEGGSHHHHHH,soluble
3,MLTMSKAVESLQRFLMPKAGEPHDVRMLYLIESEHNNGRAMWNDRHSVAISAGDEVSFQTYFNAFPASYWRRWTQLDNVILRVEVTGTARVDVFRTKIDGASYAEQGQVVSDGVVEFDLSLAPFEDGGWLWFYVTAETDVTFKAGWYAPQAPQPQVMPDGSQVGPFDKRVTVGIPTFNRPTDAVAALTALSEDPEVDAVIDAVIMPDQGNKHPADEPGYKEATEHFGDRFFEFRQGNLGGSGGYSRIMYEALGGVDGTKPAGAAQSPYILYMDDDIAIEPDSVLRALQVARYAKSPILVGGQMLSLQERSHLHSMGEVVDRNIFMWTSAPFVHYDHDFAKYPLSDRPSPDAPSDRPKTEDLHRRIDVDYNGWWMCMIPRVVAEQIGQPLPLFIKWDDAEYGLRAGNAGFATATWPGVAIWHLAWSDKDDAIDWQAYFHLRNRLIVGAIENGNPAGMVRSMQKATLKHLLCLEYSTVAVQNEAMKDFLAGPSHLFDILETSLPHINALRKNYSDAVVLPSAADLPRPSGAPGVPTVYNLSGPLAPVKKVGWLLKGIKHTLSKENPQHHDVPQANLAPINARWFSLSRLDGATVSTADGRGVVYRKRDRAQAKELLQESYRLQKEVAANFDRLREEYRAAHKELTSREAWAKIFEEPQGAEES,not soluble
4,MDIARPSCYETVRNDDDKKSSDADIYNTSVKLEDPSAPSHDEQWTYNFFITPLNLNISPTDFKIPNDKSVKYTVKCEAKIKQDLIVQVHSLFFEIVGARCKRGVTSQEFHILSENETMTFEVGMKDLNNVSYENYQAANLLSPAGFITFTHFKSLRKDDASWGVKDPKKLMKVVTKGDGGRYNLEKLLVETETDSIKKISEDFAMILQQGMDDKRTKEQEMKMGNMEMFATEEYVEKWKKDKKAIEIAQKNQREWNDKKLEKPGMQKKKEKKCNIM,not soluble
5,MGSDKIHHHHHHMTDSPHTIRNPAAPLAERLRPRTLDDVVGQSHLLGPGKPLRLAFESGKPHSMILWGPPGSGKTTLARLMAHAFDAEFIAISAVLSGVKDIREAIERAQITLQRTGRATLLFVDEVHRFNKAQQDAFLPHVEQGLITFIGATTENPSFEVNGALLSRAQVYALKALTDQELHQLFERARSIAMLDLEFENTAIELLIGFADGDARRLLNLLEQVQNAAETEEIIKIDADYLSRVLARNVRRFDKGGDAFYDQISALHKSIRGSSPDAALYWLCRMLDGGADPRYIGRRLVRTATEDIGLADPRALTLALNACEVFERLGSPEGELALAQATLYLACAPKSNAAYVAYKQARAFIKEDISRPVPIHLRNAPTRLMREMGHGAAYRYAHDESESYAAGENYFPDNILAVQFYRPTTHGLEAKIGEKLAYLRSLDEKTGKKRN,not soluble
6,MGSDKIHHHHHHMKIDRLIGIITILLQKERATIPQLAERFEVSCRTIQRDIDAIGQAGIPIVSRQGYGGGLSIADGYKLDKTVLTKKELQAILTGIRSIDSISKTTYGQTLIEKFANGKAAVLAEQDMILIDLASWYQDSLSDKIEQLRQAIFNREKVFFVYYSDKGESERLIEPYLILFKWAAWYVYGYCLTKNEYRLFKLNRLWKLKNTNLTYIPRNIPEGKLEFERYFQTEEIRLTALFDARAKYRLIEEYGPECFTVSEPDKLLFQRSFSNPEYLLQWLLSFGDRVRVIEPPELKANIQEHAKNMLRQDD,not soluble
7,MGSDKIHHHHHHAAEKTVVNISKVDGMPWFNRMGEGVVQAGKEFNLNASQVGPSSTDAPQQVKIIEDLIARKVDAITIVPNDANVLEPVFKKARDAGIVVLTNESPGQPSANWDVEIIDNEKFAAEYVEHMAKRMGGKGGYVIYVGSLTVPQHNLWADLLVKYQKEHYPDMHEVTRRMPVAESVDDSRRTTLDLMKTYPDLKAVVSFGSNGPIGAGRAVKEKRAKNKVAVYGMMIPSQAASLIKSGDITEGITYDPATAGYALAAVASTLLNGKTIEPGFELKELGKAEVDSDKHIIRFHKVLLVNKDNIDSLY,not soluble
8,SGTPNDQAVLQAIFNPDTPFGDVVGLDLEEAEEGDEDGVFPQAQLEHSKALELQGVRAAEAGDLHTALEKFGQAISLLPDRASAYNNRAQARRLQGDVAGALEDLERAVTLSGGRGRAARQSFVQSGLLARFQGRDDDARRDFEKAARLGSPFARRQLVLLNPYAALCNRMLADMMGQLRAPSNGR,soluble
9,MSRGQIIHSGHFMCSNPHDDLVQDEDEEDVEVDVVEDDDKSMEASSSVHHKNKALDEKPVTFYKFGVGKTQSIAIDVSLNKLNKCIKVAYNKMTTPKWKDFKGLRLHWKQRVRLNNVIWRAYYIEFRKKQPEKPKKPFCYFAVPDDDTTHQKIEGSIVEGMYWKRKMEGVCAQYKRWRIRSKHNLVTDKGGMVATCSSTSVSSMTGELKRKRKHTVPKETIESKLRSYEPPVKLQRSQTPKHTISDEFAWDFDDLDNVFTDDFLNSLSEPYMFPDPRDVYSGNNADIMQPGLLPLQPTIEDIMMSLGDDMPDSPPFHNDRDTMRTPTNDQPSISAQQIPQMRRSASSSASLHQMQVAQAQAQSISQISQPSQQLQHQIQIQQPVAARPHEFMASSIMMDYRLMPTRQSSAITSQMLMLSQSASTLSSQPQYATSTHYSTNNSFLPIRNTMTNQHHLGHTSQHSPWNKQQQSNFLVSLPHQSHVERILNNQPPLVPPPSRSNLLPTQNDPYLPQFLQSTQPTPQPQSHDPMMAPSRSWWLDSPLTASVQSPLSVATPLPLANQTGPQTPLGQLIGSADNGFLFGGNNTPGGFKMSGTTSGVPTLSQRLEQPPISRTSTIFGNVENKPERIFTSLTSQNTPTPSPLDISSLSRLRTSSLNESWKMSHIVEGSPTYQAFAASVTTKPSILESPSTSGDISGPASVPVQASQHPPKIITPPSASSKRKEQEAAMAPLVNRQQSCDVNLLNGKMAVKVEEKSGRHYLPTTPTELKEVTKEEPLLMSAPSSVKSMRRQAPDSTLHPEERKRILHLHAEQNRRSALKDGFDQLMDIIPDLYSGGVKPTNAVVLAKSADHIRRLQAEKWDKTQKIDEAKAKIEKLNQKITSLQSNLPQSSAPSSSSQVDSKTSLETFFDRYVKEGAKKNWRFWVVSYLAEKLKFF,not soluble
10,MPFIDLQSKLGINVDKWLLAQSGEQPRKRAAFCHAFEKEWIECSHAIGKTRASKECNIEWEDFYECMHRFKTMKRLKEISTQKEKMIKEGTYTPPPHHTGKGEPLS,not soluble
11,MSLHHLTTYITHDTLISALGFGTQENLEAIRSYHSGITLQTDKRIADTPLLAATLSQERLQQQAEAIGVSGYPRMEQLFILTINELIRQSGQTLEDKTCGLILSTTKGNIDLLARHTEHPDEAVFLWKMAENIAGYFHAEERVHVISNACISGVSALIAGKRMIENGIYRRVIVAGGDLLSHFITSGFGSFRSLSSRPCRPYDSSRDGLNLGEACGAVLLSSEGTEEHVILSGGAVSNDANHISGPSRTGDGLYFAIRQAMQEAGTAPQDISFVNAHGTATVYNDEMESKALTLAHLEQVPVHSLKPYFGHTLGASGIIESIVCMHELKQGILFGTPGYETPGVPMPIPVYATHRSIPMKHCVKTASGFGGCNAAIVLSLPEYTPFKDEDNTLPEIRCTREVRIENSSVFINNELIFHSEEPDFGTFIRDTYKKTGGNNLKFYKMDDLCKLGYVAAEYLLEGKTFAPLEMGMLLANAASSLHTDIRHQQLIDREGDQAASPAVFVYTLPNVVSGEICIRHKIQGENTFFITEAYQPEKLERYARIVMQKGKLNYCIIGWCELWKNTYKAVFKLIEKEGHHHHHH,soluble
